Molecular target: His6-AstR (Acinetobacter baumannii ATCC 17978VU)
Test: SEC; purified His6-AstR; size estimated with standard curves; Size Exclusion Buffer (50 mM Tris, 300 mM NaCl, pH 8)

In the case of His6-AstR (natural protein), the stoichiometry N is reported as 2.

Reference: PMC13572408
